Measured values: article PMC9483790

Molecular target: endogenous pyruvate kinase M2 (PKM2) (human (endogenous in PLC/PRF/5, SMMC-7721, HCCLM3, Huh7)) (UniProt P14618)
Test: cross-linking

endogenous pyruvate kinase M2 (PKM2), P14618 1-531 (enzyme; other documents disagree on this pair), sequence (P14618 whole entry): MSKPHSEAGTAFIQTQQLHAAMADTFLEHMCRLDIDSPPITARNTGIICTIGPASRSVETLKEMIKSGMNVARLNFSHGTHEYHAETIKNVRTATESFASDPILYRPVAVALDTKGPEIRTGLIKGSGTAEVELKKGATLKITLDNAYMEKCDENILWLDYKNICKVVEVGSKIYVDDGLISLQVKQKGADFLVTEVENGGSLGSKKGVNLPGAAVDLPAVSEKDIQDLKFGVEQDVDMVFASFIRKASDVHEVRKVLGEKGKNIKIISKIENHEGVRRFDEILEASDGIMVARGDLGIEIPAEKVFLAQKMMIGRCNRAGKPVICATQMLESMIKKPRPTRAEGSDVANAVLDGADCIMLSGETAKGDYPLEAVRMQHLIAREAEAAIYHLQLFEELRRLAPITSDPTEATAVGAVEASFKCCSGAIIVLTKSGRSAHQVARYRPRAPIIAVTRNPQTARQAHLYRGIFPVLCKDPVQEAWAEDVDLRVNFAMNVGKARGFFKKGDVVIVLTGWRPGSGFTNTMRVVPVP

Substance: endogenous pyruvate kinase M2 (PKM2), P14618 1-531 (enzyme; other documents disagree on this pair)
- stoichiometry N: 2
